Legend:
IFF05588 = biological target: T1, IFF05588
T1 chain: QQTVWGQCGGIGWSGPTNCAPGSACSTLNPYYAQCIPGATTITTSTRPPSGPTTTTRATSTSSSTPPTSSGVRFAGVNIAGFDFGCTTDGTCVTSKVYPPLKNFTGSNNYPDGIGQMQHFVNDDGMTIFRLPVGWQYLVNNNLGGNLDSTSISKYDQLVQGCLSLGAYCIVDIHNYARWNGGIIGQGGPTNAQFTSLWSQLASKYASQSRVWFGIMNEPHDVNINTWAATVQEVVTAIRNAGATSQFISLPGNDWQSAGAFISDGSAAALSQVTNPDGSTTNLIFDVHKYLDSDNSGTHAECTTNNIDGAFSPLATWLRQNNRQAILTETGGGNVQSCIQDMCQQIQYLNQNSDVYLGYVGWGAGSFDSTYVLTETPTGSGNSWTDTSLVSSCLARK

IFF07399 = biological target: T2, IFF07399
T2 chain: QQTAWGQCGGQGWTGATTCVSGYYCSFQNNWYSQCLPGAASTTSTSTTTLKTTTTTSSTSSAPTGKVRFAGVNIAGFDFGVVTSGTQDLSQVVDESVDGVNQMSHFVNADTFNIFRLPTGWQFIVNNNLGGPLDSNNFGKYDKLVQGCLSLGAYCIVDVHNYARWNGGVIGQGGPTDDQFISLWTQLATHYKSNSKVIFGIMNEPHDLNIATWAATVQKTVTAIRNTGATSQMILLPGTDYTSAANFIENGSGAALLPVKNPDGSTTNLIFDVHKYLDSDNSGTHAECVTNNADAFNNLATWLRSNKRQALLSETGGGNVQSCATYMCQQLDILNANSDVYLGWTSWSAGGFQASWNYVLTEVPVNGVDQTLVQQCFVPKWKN

[1] = biological target: T3, IFF01073 produced in E. coli without glycosylation
T3 chain: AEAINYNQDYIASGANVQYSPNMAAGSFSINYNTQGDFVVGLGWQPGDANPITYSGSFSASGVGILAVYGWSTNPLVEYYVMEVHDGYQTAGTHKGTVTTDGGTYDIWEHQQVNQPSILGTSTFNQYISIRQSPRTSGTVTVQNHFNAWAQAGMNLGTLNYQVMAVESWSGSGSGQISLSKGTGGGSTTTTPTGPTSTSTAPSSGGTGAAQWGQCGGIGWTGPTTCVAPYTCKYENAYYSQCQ

[2] = biological target: T4, IFF01073 produced in T. reesei with glycosylation
T4 chain: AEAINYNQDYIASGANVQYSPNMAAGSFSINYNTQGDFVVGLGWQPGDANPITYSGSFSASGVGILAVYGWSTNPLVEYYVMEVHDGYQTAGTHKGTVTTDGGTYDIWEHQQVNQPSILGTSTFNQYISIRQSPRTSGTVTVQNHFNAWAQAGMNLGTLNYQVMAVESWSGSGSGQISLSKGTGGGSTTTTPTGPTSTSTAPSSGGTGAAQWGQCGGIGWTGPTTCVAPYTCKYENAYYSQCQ

IFF01509 = biological target: T5, IFF01509
T5 chain: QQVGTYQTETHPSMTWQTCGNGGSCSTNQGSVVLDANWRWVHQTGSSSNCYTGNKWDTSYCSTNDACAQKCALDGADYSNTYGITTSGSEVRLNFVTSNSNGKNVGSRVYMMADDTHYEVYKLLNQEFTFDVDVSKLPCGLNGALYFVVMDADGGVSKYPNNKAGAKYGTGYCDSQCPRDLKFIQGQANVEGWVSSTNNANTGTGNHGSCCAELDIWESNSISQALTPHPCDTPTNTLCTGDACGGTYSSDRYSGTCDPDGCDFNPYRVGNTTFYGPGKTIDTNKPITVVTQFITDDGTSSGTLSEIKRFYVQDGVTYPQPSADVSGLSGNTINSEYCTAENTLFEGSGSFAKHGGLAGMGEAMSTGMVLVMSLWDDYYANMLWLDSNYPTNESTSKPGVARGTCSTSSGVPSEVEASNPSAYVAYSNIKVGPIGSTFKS

IFF01540 = biological target: T6, IFF01540
T6 chain: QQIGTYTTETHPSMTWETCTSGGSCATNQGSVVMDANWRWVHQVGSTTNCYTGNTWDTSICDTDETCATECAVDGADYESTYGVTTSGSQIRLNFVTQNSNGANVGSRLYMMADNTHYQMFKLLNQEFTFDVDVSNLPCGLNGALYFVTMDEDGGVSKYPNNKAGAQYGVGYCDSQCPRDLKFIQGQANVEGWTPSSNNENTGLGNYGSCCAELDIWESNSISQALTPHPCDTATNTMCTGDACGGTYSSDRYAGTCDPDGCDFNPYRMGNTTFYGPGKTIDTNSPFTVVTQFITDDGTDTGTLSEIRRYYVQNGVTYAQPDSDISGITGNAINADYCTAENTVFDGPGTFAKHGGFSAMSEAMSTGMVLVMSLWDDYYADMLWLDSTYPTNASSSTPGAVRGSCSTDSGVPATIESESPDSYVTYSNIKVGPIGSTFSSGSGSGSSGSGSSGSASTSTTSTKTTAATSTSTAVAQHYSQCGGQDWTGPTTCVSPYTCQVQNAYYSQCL

B1: IFF21374 (protein)
chain: QRLNKPALTPNLDYLEQGNIDNLHPTHSTWDKWGPGWIPADCKSIAQNEGKNPDDFEIYNVHYDDCSDAWVFCRHKDSNVDLVTTIDIFGRLPVKMRSWVRHVITIPGDSWAYNSNGNIAFFGTTSSSMDVAIHETGHSLDLLGAYWGKTFSDSSTWLDNYNQDPNVPDEYAQTNQVENVAQNTVVGVYDKVVPGGFGSVQPNWHNIFHQYATLQWGAGDQIIPGGTCDRHLQNSETVPTGNSALAFNAVNRPDTSLKGNYSNIVTDFKEFSTRGNCRI
Relative late peak area (reverse phase chromatography, 24 h) (IFF05588): 0.51
Gel mobility change (SDS-PAGE) (IFF07399): yes

B2: IFF05497 (protein)
chain: LAILDKPVIQPNFPGNGLASLGQGLMDHLAPTHSTWDDWGAGWIPQDCKSLVEGAGLSASDVIPFNIHYDDCAQTWTFCRHKDSPLSEITILDIFGRLPVRMRSFVRHLVFIPGAKSAGSNGDNVLLRGDIDVTVFAHEIGHSLDSHAFDPSYGVPFSTGNVWISNYNLDSAVPDPYAQTSQQENFAQQTVISLYDKVVPGGIGTIQPNWQAIFHQYATLEGYIGDVIIPGGTCTHRLTDSPPVQMSSLAKGRRALGPKPNVALSPEVEEIEAIPMKSSITMTSFDEAGKPNGTYVINL
Gel mobility change (SDS-PAGE) [1]: no
Gel mobility change (SDS-PAGE) [2]: yes
Mobility change (SDS-PAGE) [2]: yes
Mobility change (SDS-PAGE) (IFF01509): no
Mobility change (SDS-PAGE) (IFF01540): yes
Mobility change (SDS-PAGE) (IFF03904): yes
Mobility change (SDS-PAGE) (IFF05588): yes
Relative late peak area (centered, scaled, averaged over 5, 10 and 15 min) (IFF05588): -0.77
Relative late peak area (centered, scaled, averaged over doses, 24 h; sample diluted 1-fold) (IFF05588): -0.28
Mobility change (SDS-PAGE) (IFF06679): yes
Gel mobility change (SDS-PAGE) (IFF07399): yes
Mobility change (SDS-PAGE) (IFF07399): yes
Mobility change (SDS-PAGE) (IFF08955): no
Mobility change (SDS-PAGE) (IFF08955v3): yes

B3: IFF21358 (protein)
chain: GNPDKPEVNPHIPYDRLENDLRNNLHPTQSTWDYWGAGWIPQGCKDLANTYHLNPADFTIFNVHYTDCSASWTFCRHKNAGASEIDMIDIFGRLPVRMRSYLRHLVATPGLNDGAAAWTWSSGDCVVESAPNLATLVHEVSHSLDWHALPQYQQPFSSSSIWQDNYNQDSATPTGYGRTNWMENFAETGMVGVYDKAVPGGIGNIEPNWNAIFHQYATYQGYLGDKIIAGGSCANRFDDTPPVAMSNSAKFKITSAKPETGIDFAGKNITQIIPSKEFEGLYIKG
Relative late peak area (centered, scaled, averaged over 5, 10 and 15 min) (IFF05588): -1.04
Relative late peak area (centered, scaled, averaged over doses, 24 h; sample diluted 1-fold) (IFF05588): -1.46
modification of IFF05588 (reverse phase chromatography, 5 to 15 min) (IFF05588): All samples containing proteins related to IFF05497 except seven (IFF21355, IFF21358, IFF21356, IFF21361, IFF21370, IFF21357 and IFF21353) are able to modify IFF05588 under these reaction conditions
Gel mobility change (SDS-PAGE) (IFF07399): yes
